Assay results: patent CN110885376A (SHANGHAI NOVAMAB BIOPHARMACEUTICALS CO LTD, dated 2020)

Target: T1, CD20 (UniProt P11836 1-297, limits assumed)
T1 construct: whole, on cells; Endogenous CD20 of Raji cells; also called 白细胞分化抗原20; 细胞表面CD20
T1 sequence (looked up): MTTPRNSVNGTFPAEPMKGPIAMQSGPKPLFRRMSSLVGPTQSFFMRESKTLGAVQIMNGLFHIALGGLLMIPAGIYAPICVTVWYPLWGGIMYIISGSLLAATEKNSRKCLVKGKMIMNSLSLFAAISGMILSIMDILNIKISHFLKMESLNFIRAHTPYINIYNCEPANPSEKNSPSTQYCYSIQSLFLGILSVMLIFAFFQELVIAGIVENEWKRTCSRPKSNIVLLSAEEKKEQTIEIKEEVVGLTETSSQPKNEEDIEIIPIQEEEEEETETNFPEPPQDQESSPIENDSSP
Assay: flow cytometry on Raji cells (CD47 first blocked with Nb1902), anti-hFc-FITC

- EC50: 5.67 µg/mL
B1: 利妥昔单抗 (antibody, human IgG1, kappa, L234A L235A, V domains shown)
VH: QVQLQQPGAELVKPGASVKMSCKASGYTFTSYNMHWVKQTPGRGLEWIGAIYPGNGDTSYNQKFKGKATLTADKSSSTAYMQLSSLTSEDSAVYYCARSTYYGGDWYFNVWGAGTTVTVSA
VL: QIVLSQSPAILSASPGEKVTMTCRASSSVSYIHWFQQKPGSSPKPWIYATSNLASGVPVRFSGSGSGTSYSLTISRVEAEDAATYYCQQWTSNPPTFGGGTKLEIKR
notes: also called 对照抗体利妥昔; rituximab
